Measured values published in PMC3477848 (Biochemistry, 2012).
Like-named read-outs stand apart in the source and are kept apart here.

Key:
Assay in all cases: fluorescence anisotropy
[1] = molecular target: T1, Dpo4 (SsoDpo4, Y-family DNA polymerase) (Sulfolobus solfataricus, UniProt Q97W02 1-352)
T1 sequence: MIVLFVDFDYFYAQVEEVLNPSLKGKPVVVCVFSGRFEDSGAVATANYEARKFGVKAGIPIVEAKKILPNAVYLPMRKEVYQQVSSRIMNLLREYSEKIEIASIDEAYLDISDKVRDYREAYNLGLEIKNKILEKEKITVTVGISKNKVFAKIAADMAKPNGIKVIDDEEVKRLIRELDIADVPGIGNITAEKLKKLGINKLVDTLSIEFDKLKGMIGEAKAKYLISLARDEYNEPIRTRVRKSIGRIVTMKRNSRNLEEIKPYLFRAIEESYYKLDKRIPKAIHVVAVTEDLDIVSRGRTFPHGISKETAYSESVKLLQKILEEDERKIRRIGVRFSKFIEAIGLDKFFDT

[2] = molecular target: T2, Dpo1 exo- (SsoDpo1, B-family DNA polymerase) (Sulfolobus solfataricus, UniProt P26811 1-882, D231A;D318A)
T2 sequence: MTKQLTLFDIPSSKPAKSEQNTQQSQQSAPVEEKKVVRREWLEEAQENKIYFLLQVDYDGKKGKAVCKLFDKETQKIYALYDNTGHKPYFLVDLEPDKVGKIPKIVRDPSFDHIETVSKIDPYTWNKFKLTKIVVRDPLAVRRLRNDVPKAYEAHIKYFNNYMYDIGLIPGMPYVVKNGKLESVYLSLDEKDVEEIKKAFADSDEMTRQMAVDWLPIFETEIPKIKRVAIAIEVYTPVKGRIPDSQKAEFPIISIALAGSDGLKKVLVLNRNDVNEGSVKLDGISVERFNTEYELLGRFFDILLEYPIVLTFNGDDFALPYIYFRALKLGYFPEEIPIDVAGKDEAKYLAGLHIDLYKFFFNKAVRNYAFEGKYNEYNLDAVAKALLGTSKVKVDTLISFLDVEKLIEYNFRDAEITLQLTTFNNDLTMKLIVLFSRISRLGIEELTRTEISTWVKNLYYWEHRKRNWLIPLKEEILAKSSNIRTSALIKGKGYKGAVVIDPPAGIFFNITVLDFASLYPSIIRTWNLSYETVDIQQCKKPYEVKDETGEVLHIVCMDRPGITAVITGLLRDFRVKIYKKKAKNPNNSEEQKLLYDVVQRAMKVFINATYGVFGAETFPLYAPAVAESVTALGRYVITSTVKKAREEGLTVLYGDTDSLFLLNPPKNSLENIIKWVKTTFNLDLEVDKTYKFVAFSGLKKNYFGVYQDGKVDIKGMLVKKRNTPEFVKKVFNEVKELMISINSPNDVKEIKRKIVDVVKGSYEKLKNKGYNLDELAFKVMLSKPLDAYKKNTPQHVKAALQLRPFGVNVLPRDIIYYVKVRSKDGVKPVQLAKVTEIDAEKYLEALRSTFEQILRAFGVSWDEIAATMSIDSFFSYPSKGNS

[3] = molecular target: T1, Dpo4 (SsoDpo4, Y-family DNA polymerase); remark: listed apart in the source
[4] = molecular target: T1, Dpo4 (SsoDpo4, Y-family DNA polymerase); remark: listed apart in the source
[5] = molecular target: T2, Dpo1 exo- (SsoDpo1, B-family DNA …); remark: listed apart in the source
[6] = molecular target: T1, Dpo4 (SsoDpo4, Y-family DNA polymerase); remark: listed apart in the source
[7] = molecular target: T2, Dpo1 exo- (SsoDpo1, B-family DNA …); remark: listed apart in the source
[8] = molecular target: T1, Dpo4 (SsoDpo4, Y-family DNA polymerase); remark: listed apart in the source

B1: 37-nt hairpin primer-template, 5'-Cy3 (structured_DNA)
DNA: TTTTTTTTTTCCCGGGCCGGCGTTTCGCCGGCCCGGG
B1 showed a Kd [1] of 125 ± 51 nM, a Kd [2] of 144 ± 15 nM and a Kd [3] of 130 ± 4 nM. It also gave a Kd [4] of 164 ± 9 nM, a Kd [5] of 113 ± 32 nM and a Kd [6] of 329 ± 107 nM. For the same binder, the Kd [7] was 208 ± 57 nM and the Kd [8] was 176 ± 10 nM.
